The values below come from patent US20230414771A1, “PREPARATION AND USE OF IMMUNOSTIMULATORY CONJUGATED COMPLEXES FOR TARGETED DELIVERY AND ACTIVATION” (YAFEI SHANGHAI BIOLOGY MEDICINE SCIENCE & TECHNOLOGY CO., …, priority 2020, published 2023).

*1 amine or outer side, *2 acyl side, *3 side chain or, on linkers, in order; H or OH if unused. Where a SMILES comes first, the peptide text is derived from it. [ ]: non-standard residue; d: D form. The star is where a group is joined. ξ: configuration not given here. Doxorubicin(3'-N) = COc1cccc2c1C(=O)c1c(O)c3c(c(O)c1C2=O)C[C@@](O)(C(=O)CO)C[C@@H]3O[C@H]1C[C@H](N*)[C@H](O)[C@H](C)O1; Dovitinib(4-NH) = CN1CCN(c2ccc3nc(-c4c(N*)c5c(F)cccc5[nH]c4=O)[nH]c3c2)CC1; Thyronine(3,5,3'-I3) = N[C@@H](Cc1cc(I)c(Oc2ccc(O)c(I)c2)c(I)c1)C(=O)O; Mal(CH2CH2O)6CH2CH2CO = O=C1C=CC(=O)N1CCOCCOCCOCCOCCOCCOCCC(=O)*; X9 = O=C([C@@H](Cc1cc(I)c(Oc2ccc(O)c(I)c2)c(I)c1)N[*:1])[*:2]; Hexanoyl(6-maleimido) = O=C1C=CC(=O)N1CCCCCC(=O)*; Propanoyl(3-maleimido) = O=C1C=CC(=O)N1CCC(=O)*; X3 = O=C1C=CC(=O)N1CCOCCOCCC(=O)*; PEG3 = NCCOCCOCCOCCC(=O)O; ξN = NC(=O)CC(N)C(=O)O

This data set can be described thus: Water solubility test (observation and HPLC). Type of data set: physicochemical. As to conditions: thermodynamic from solid. The procedure:
The compounds prepared in accordance with the examples of the disclosure and the reference compounds C1, C2, C3 and C4 were lyophilized (−70° C.).
For orientation: solubility means the concentration that dissolves in the medium under given conditions. In turn, `C[C@H](NC(=O)[C@H](C)NC(=O)[C@@H](CC(=O)O)NC(=O)CCCCCN1C(=O)C=CC1=O)C(=O)NC(CC(N)=O)C(=O)N[C@H](Cc1cc(I)c(Oc2ccc(O)c(I)c2)c(I)c1)C(=O)O` (some centres unmarked) [QHL-162-T3] ({Hexanoyl(6-maleimido)}-[dD]AA[ξN][X9]-OH) registered a solubility above 10000 µg/mL.

Turning to `C[C@H](NC(=O)CCOCCOCCOCCOCCOCCOCCN1C(=O)C=CC1=O)C(=O)N[C@@H](C)C(=O)N[C@H](CC(N)=O)C(=O)N[C@@H](Cc1cc(I)c(Oc2ccc(O)c(I)c2)c(I)c1)C(=O)O` [QHL-155-T3] ({Mal(CH2CH2O)6CH2CH2CO}-AA[dN][Thyronine(3,5,3'-I3)]-OH), the solubility was above 10000 µg/mL.

Molecule `C[C@H](NC(=O)CCOCCOCCN1C(=O)C=CC1=O)C(=O)N[C@@H](C)C(=O)N[C@H](CC(N)=O)C(=O)N[C@@H](Cc1cc(I)c(Oc2ccc(O)c(I)c2)c(I)c1)C(=O)O` [QHL-153-T3] (X3-AA[dN][Thyronine(3,5,3'-I3)]-OH) came in with a solubility above 10000 µg/mL.

Take `C[C@@H](NC(=O)CCOCCOCCNC(=O)CCN1C(=O)C=CC1=O)C(=O)N[C@H](C)C(=O)N[C@H](CC(N)=O)C(=O)Nc1ccc(COC(=O)N2CC(C)(C)c3ccc(NC(=O)c4cccnc4NCc4ccncc4)cc32)cc1` [QHL-089-Motesani]: the solubility was above 20000 µg/mL.

As for `C[C@@H](NC(=O)CCOCCOCCOCCNC(=O)CCN1C(=O)C=CC1=O)C(=O)N[C@H](C)C(=O)N[C@H](CC(N)=O)C(=O)Nc1ccc(COC(=O)Nc2nccc(-c3sc(C(C)(C)C)nc3-c3cccc(CS(=O)(=O)c4c(F)cccc4F)c3F)n2)cc1` [QHL-089-dabrafenib], the solubility is above 20000 µg/mL.

Take `COc1cccc2c1C(=O)c1c(O)c3c(c(O)c1C2=O)C[C@@](O)(C(=O)CO)C[C@@H]3O[C@H]1C[C@H](NC(=O)[C@H](CC(C)C)NC(=O)[C@H](CC(N)=O)NC(=O)[C@H](C)NC(=O)[C@H](C)NC(=O)[C@@H](NC(=O)CCCCCN2C(=O)C=CC2=O)C(C)C)[C@H](O)[C@H](C)O1` [QHL-123-DOX] ({Hexanoyl(6-maleimido)}-VAANL-{Doxorubicin(3'-N)}): the solubility was above 2000 µg/mL.

In turn, `CCOCc1nc2c(NC(=O)OCc3ccc(NC(=O)[C@H](CC(N)=O)NC(=O)[C@H](C)NC(=O)[C@H](C)NC(=O)CCOCCOCCOCCOCCOCCOCCOCCOCCOCCOCCOCCOCCN4C(=O)C=CC4=O)cc3)nc3ccccc3c2n1CC(C)(C)O` [QHL-147-Resiquimod] gave a solubility above 10000 µg/mL.

For the molecule `CCOCc1nc2c(NC(=O)OCc3ccc(NC(=O)[C@@H](CC(N)=O)NC(=O)[C@H](C)NC(=O)[C@H](C)NC(=O)CCOCCOCCOCCN4C(=O)C=CC4=O)cc3)nc3ccccc3c2n1CC(C)(C)O` [QHL-006-Resiquimod], the solubility was above 10000 µg/mL.

Molecule `CCOCc1nc2c(NC(=O)OCc3ccc(NC(=O)C(CC(N)=O)NC(=O)[C@H](C)NC(=O)[C@H](C)NC(=O)CCOCCOCCOCCOCCNC(=O)CCN4C(=O)C=CC4=O)cc3)nc3ccccc3c2n1CC(C)(C)O` (some centres unmarked) [QHL-092-Resiquimod] registered a solubility above 10000 µg/mL.

The molecule `CC(C)C[C@H](NC(=O)[C@H](CC(N)=O)NC(=O)[C@H](C)NC(=O)[C@H](C)NC(=O)CCOCCOCCOCCNC(=O)CCN1C(=O)C=CC1=O)C(=O)Nc1c(-c2nc3ccc(N4CCN(C)CC4)cc3[nH]2)c(=O)[nH]c2cccc(F)c12` [QHL-090 - Dovitinib] ({Propanoyl(3-maleimido)-PEG3}-AANL-{Dovitinib(4-NH)}) yielded a solubility above 10000 µg/mL.

Turning to `C[C@@H](NC(=O)CCOCCOCCOCCNC(=O)CCN1C(=O)C=CC1=O)C(=O)N[C@H](C)C(=O)N[C@H](CC(N)=O)C(=O)Nc1ccc(COC(=O)Nc2c(-c3nc4ccc(N5CCN(C)CC5)cc4[nH]3)c(=O)[nH]c3cccc(F)c23)cc1` [QHL-089 - Dovitinib], the solubility is above 20000 µg/mL.

As for `C[C@@H](NC(=O)CCOCCOCCNC(=O)CCN1C(=O)C=CC1=O)C(=O)N[C@H](C)C(=O)N[C@H](CC(N)=O)C(=O)Nc1ccc(COC(=O)Nc2nccc(-c3sc(C(C)(C)C)nc3-c3cccc(NS(=O)(=O)c4c(F)cccc4F)c3F)n2)cc1` [QHL-086-dabrafenib], the solubility was above 20000 µg/mL.

On to `CCOCc1nc2c(NC(=O)OCc3ccc(NC(=O)[C@H](CC(N)=O)NC(=O)[C@H](C)NC(=O)[C@H](C)NC(=O)CCCCCN4C(=O)C=CC4=O)cc3)nc3ccccc3c2n1CC(C)(C)O` [QHL-140-Resiquimod], for which the solubility was above 10000 µg/mL.

Regarding `CCOCc1nc2c(NC(=O)OCc3ccc(NC(=O)[C@H](CC(N)=O)NC(=O)[C@H](C)NC(=O)[C@H](C)NC(=O)CCOCCOCCOCCOCCOCCOCCN4C(=O)C=CC4=O)cc3)nc3ccccc3c2n1CC(C)(C)O` [QHL-008-Resiquimod], the solubility was above 10000 µg/mL.
